The target of experiment [1] is H2A-H2B histone dimer from Drosophila melanogaster (Drosophila melanogaster, UniProt P84051 2-121; P02283 2-123). Nature of the experiment: ITC.
Experiment [2] addresses (H3-H4)2 histone tetramer from Drosophila melanogaster (Drosophila melanogaster, UniProt P02299 2-136; P84040 2-103). Nature of the experiment: ITC.

B1: APLF acidic domain (APLF^AD), Homo sapiens APLF residues 450-511, wild type (domain or fragment)
chain: DEDNDNVGQPNEYDLNDSFLDDEEEDYEPTDEDSDWEPGKEDEEKEDVEELLKEAKRFMKRK
The Kd is the constant that tells how readily two partners part at equilibrium. Lower therefore signals a tighter complex. In the case of B1, the Kd in experiment [1] worked out at 940 nM; in experiment [2] it was 3810 nM.

The record behind these values is article PMC6101569 (Nucleic Acids Research, 2018).
